The target of the assay is Strep-tagged HypC_(H51A) (E. coli) (UniProt P0AAM3). Nature of the assay: pull-down; single-step Strep-tactin affinity enrichment of the Strep-tagged chaperone from extracts of anaerobically grown SHH228 cells co-producing HypD; elution fractions (10 ug protein) on SDS-PAGE, Coomassie stain, densitometry (ImageQuant TL); apparent stoichiometries.

We go through one molecule from publication PMC9002611.

B1: HypD (untagged) (natural protein)
chain: MRFVDEYRAPEQVMQLIEHLRERASHLSYTAERPLRIMEVCGGHTHAIFKFGLDQLLPENVEFIHGPGCPVCVLPMGRIDTCVEIASHPEVIFCTFGDAMRVPGKQGSLLQAKARGADVRIVYSPMDALKLAQENPTRKVVFFGLGFETTMPTTAITLQQAKARDVQNFYFFCQHITLIPTLRSLLEQPDNGIDAFLAPGHVSMVIGTDAYNFIASDFHRPLVVAGFEPLDLLQGVVMLVQQKIAAHSKVENQYRRVVPDAGNLLAQQAIADVFCVNGDSEWRGLGVIESSGVHLTPDYQRFDAEAHFRPAPQQVCDDPRARCGEVLTGKCKPHQCPLFGNTCNPQTAFGALMVSSEGACAAWYQYRQQESEA
In the case of B1, the apparent stoichiometry with HypD, percent lower than for the native chaperone turned out to be 85 % lower.
